Target: TRAIL receptors
Assay: cell-based or functional assay

| Binder | EC50 measured by use of L929 cells [ng/mL] | also measured |
| --- | --- | --- |
| super-TRAIL AX-1611, P50591 114-281 (ligand) VRERGPQRVAAHITGTRGRSNTLSSPNSKNEKALGRKINSWESSRSGHSFLSNLHLRNGELVIHEKGFYYIYSQTYFRFQEEIKENTKNDKQMVQYIYKYTSYPDPILLMKSARNSCWSKDAEYGLYSIYQGGIFELKENDRIFVSVTNEHLIDMDHEASFFGAFLVGGGGGGVAAHITGTRGRSNTLSSPNSKNEKALGRKINSWESSRSGHSFLSNLHLRNGELVIHEKGFYYIYSQTYFRFQEEIKENTKNDKQMVQYIYKYTSYPDPILLMKSARNSCWSKDAEYGLYSIYQGGIFELKENDRIFVSVTNEHLIDMDHEASFFGAFLVG | 0.85 | EC50, viability of H460 cells by MTS assay: 54.7 ng/mL; EC50, viability of RPMI-8226 cells by MTS assay: 15.4 ng/mL; fold enhanced activity to induce apoptosis in L929 cells compared with wild type TRAIL: 30 fold |
| super-TRAIL AX-1618, P50591 114-281 (ligand) VRERGPQRVAAHITGTRGRSNTLSSPNSKNEKALGRKINSWESSRSGHSFLSNLHLRNGELVIHEKGFYYIYSQTYFRFQEEIKENTKNDKQMVQYIYKYTSYPDPILLMKSARNSCWSKDAEYGLYSIYQGGIFELKENDRIFVSVTNEHLIDMDHEASFFGAFLVGGGGSGGGGSGGVAAHITGTRGRSNTLSSPNSKNEKALGRKINSWESSRSGHSFLSNLHLRNGELVIHEKGFYYIYSQTYFRFQEEIKENTKNDKQMVQYIYKYTSYPDPILLMKSARNSCWSKDAEYGLYSIYQGGIFELKENDRIFVSVTNEHLIDMDHEASFFGAFLVG | 1.5 |  |
| super-TRAIL AX-1606, P50591 120-281 (ligand) QRVAAHITGTRGRSNTLSSPNSKNEKALGRKINSWESSRSGHSFLSNLHLRNGELVIHEKGFYYIYSQTYFRFQEEIKENTKNDKQMVQYIYKYTSYPDPILLMKSARNSCWSKDAEYGLYSIYQGGIFELKENDRIFVSVTNEHLIDMDHEASFFGAFLVGGGGSGGGGSGGQRVAAHITGTRGRSNTLSSPNSKNEKALGRKINSWESSRSGHSFLSNLHLRNGELVIHEKGFYYIYSQTYFRFQEEIKENTKNDKQMVQYIYKYTSYPDPILLMKSARNSCWSKDAEYGLYSIYQGGIFELKENDRIFVSVTNEHLIDMDHEASFFGAFLVG | 1.05 |  |
| super-TRAIL AX-1621, P50591 114-281 (ligand) VRERGPQRVAAHITGTRGRSNTLSSPNSKNEKALGRKINSWESSRSGHSFLSNLHLRNGELVIHEKGFYYIYSQTYFRFQEEIKENTKNDKQMVQYIYKYTSYPDPILLMKSARNSCWSKDAEYGLYSIYQGGIFELKENDRIFVSVTNEHLIDMDHEASFFGAFLVGGGGSGGVAAHITGTRGRSNTLSSPNSKNEKALGRKINSWESSRSGHSFLSNLHLRNGELVIHEKGFYYIYSQTYFRFQEEIKENTKNDKQMVQYIYKYTSYPDPILLMKSARNSCWSKDAEYGLYSIYQGGIFELKENDRIFVSVTNEHLIDMDHEASFFGAFLVG | 0.95 |  |
| super-TRAIL AX-1631, P50591 114-281 (ligand) VRERGPQRVAAHITGTRGRSNTLSSPNSKNEKALGRKINSWESSRSGHSFLSNLHLRNGELVIHEKGFYYIYSQTYFRFQEEIKENTKNDKQMVQYIYKYTSYPDPILLMKSARNSCWSKDAEYGLYSIYQGGIFELKENDRIFVSVTNEHLIDMDHEASFFGAFLVGGGGGGGVAAHITGTRGRSNTLSSPNSKNEKALGRKINSWESSRSGHSFLSNLHLRNGELVIHEKGFYYIYSQTYFRFQEEIKENTKNDKQMVQYIYKYTSYPDPILLMKSARNSCWSKDAEYGLYSIYQGGIFELKENDRIFVSVTNEHLIDMDHEASFFGAFLVG | 1.2 |  |
| super-TRAIL AX-1632, P50591 114-281 (ligand) VRERGPQRVAAHITGTRGRSNTLSSPNSKNEKALGRKINSWESSRSGHSFLSNLHLRNGELVIHEKGFYYIYSQTYFRFQEEIKENTKNDKQMVQYIYKYTSYPDPILLMKSARNSCWSKDAEYGLYSIYQGGIFELKENDRIFVSVTNEHLIDMDHEASFFGAFLVGGGGGGGGGGVAAHITGTRGRSNTLSSPNSKNEKALGRKINSWESSRSGHSFLSNLHLRNGELVIHEKGFYYIYSQTYFRFQEEIKENTKNDKQMVQYIYKYTSYPDPILLMKSARNSCWSKDAEYGLYSIYQGGIFELKENDRIFVSVTNEHLIDMDHEASFFGAFLVG | 1.1 |  |
| super-TRAIL AX-1622, P50591 114-281 (ligand) VRERGPQRVAAHITGTRGRSNTLSSPNSKNEKALGRKINSWESSRSGHSFLSNLHLRNGELVIHEKGFYYIYSQTYFRFQEEIKENTKNDKQMVQYIYKYTSYPDPILLMKSARNSCWSKDAEYGLYSIYQGGIFELKENDRIFVSVTNEHLIDMDHEASFFGAFLVGGGGSGGGVAAHITGTRGRSNTLSSPNSKNEKALGRKINSWESSRSGHSFLSNLHLRNGELVIHEKGFYYIYSQTYFRFQEEIKENTKNDKQMVQYIYKYTSYPDPILLMKSARNSCWSKDAEYGLYSIYQGGIFELKENDRIFVSVTNEHLIDMDHEASFFGAFLVG | 5.3 |  |
| super-TRAIL AX-1623, P50591 114-281 (ligand) VRERGPQRVAAHITGTRGRSNTLSSPNSKNEKALGRKINSWESSRSGHSFLSNLHLRNGELVIHEKGFYYIYSQTYFRFQEEIKENTKNDKQMVQYIYKYTSYPDPILLMKSARNSCWSKDAEYGLYSIYQGGIFELKENDRIFVSVTNEHLIDMDHEASFFGAFLVGGGGSGGGGVAAHITGTRGRSNTLSSPNSKNEKALGRKINSWESSRSGHSFLSNLHLRNGELVIHEKGFYYIYSQTYFRFQEEIKENTKNDKQMVQYIYKYTSYPDPILLMKSARNSCWSKDAEYGLYSIYQGGIFELKENDRIFVSVTNEHLIDMDHEASFFGAFLVG | 0.88 |  |
| super-TRAIL AX-1630, P50591 114-281 (ligand) VRERGPQRVAAHITGTRGRSNTLSSPNSKNEKALGRKINSWESSRSGHSFLSNLHLRNGELVIHEKGFYYIYSQTYFRFQEEIKENTKNDKQMVQYIYKYTSYPDPILLMKSARNSCWSKDAEYGLYSIYQGGIFELKENDRIFVSVTNEHLIDMDHEASFFGAFLVGGGGGGGGGVAAHITGTRGRSNTLSSPNSKNEKALGRKINSWESSRSGHSFLSNLHLRNGELVIHEKGFYYIYSQTYFRFQEEIKENTKNDKQMVQYIYKYTSYPDPILLMKSARNSCWSKDAEYGLYSIYQGGIFELKENDRIFVSVTNEHLIDMDHEASFFGAFLVG | 0.78 |  |
| super-TRAIL AX-1620, P50591 114-281 (ligand) VRERGPQRVAAHITGTRGRSNTLSSPNSKNEKALGRKINSWESSRSGHSFLSNLHLRNGELVIHEKGFYYIYSQTYFRFQEEIKENTKNDKQMVQYIYKYTSYPDPILLMKSARNSCWSKDAEYGLYSIYQGGIFELKENDRIFVSVTNEHLIDMDHEASFFGAFLVGGGGSGGGGSGGGSGGVAAHITGTRGRSNTLSSPNSKNEKALGRKINSWESSRSGHSFLSNLHLRNGELVIHEKGFYYIYSQTYFRFQEEIKENTKNDKQMVQYIYKYTSYPDPILLMKSARNSCWSKDAEYGLYSIYQGGIFELKENDRIFVSVTNEHLIDMDHEASFFGAFLVG | 2.1 |  |
